Source: publication PMC10397247
One block for each binder: values may come before it.

Tests used:
4H454-AA = target: T1, 4H454-AA; test: two-hybrid library CCmax;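 note: natural log of median RNA to DNA barcode read ratio; higher means stronger binding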
T1 chain: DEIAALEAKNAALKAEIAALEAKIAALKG

4H48-AA = target: T2, 4H48-AA; test: two-hybrid library CCmax; settings: mean of both orientations;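 note: natural log of median RNA to DNA barcode read ratio; higher means stronger binding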
T2 chain: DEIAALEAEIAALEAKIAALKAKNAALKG

4H566-AA = target: T3, 4H566-AA; test: two-hybrid library CCmax; settings: mean of both orientations;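 note: natural log of median RNA to DNA barcode read ratio; higher means stronger binding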
T3 chain: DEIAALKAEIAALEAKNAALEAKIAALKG

4H605-AA = target: T4, 4H605-AA; test: two-hybrid library CCmax; settings: mean of both orientations;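 note: natural log of median RNA to DNA barcode read ratio; higher means stronger binding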
T4 chain: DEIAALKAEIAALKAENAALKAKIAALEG

4H678-AA = target: T5, 4H678-AA; test: two-hybrid library CCmax; settings: mean of both orientations;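 note: natural log of median RNA to DNA barcode read ratio; higher means stronger binding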
T5 chain: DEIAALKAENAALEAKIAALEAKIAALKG

4H717-AA = target: T6, 4H717-AA; test: two-hybrid library CCmax; settings: mean of both orientations;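 note: natural log of median RNA to DNA barcode read ratio; higher means stronger binding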
T6 chain: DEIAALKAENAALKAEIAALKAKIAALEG

4H780-AA = target: T7, 4H780-AA; test: two-hybrid library CCmax; settings: mean of both orientations
T7 chain: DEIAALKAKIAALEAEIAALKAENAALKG

4H794-AA = target: T8, 4H794-AA; test: two-hybrid library CCmax; settings: mean of both orientations
T8 chain: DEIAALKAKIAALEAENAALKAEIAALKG

4H881-AA = target: T9, 4H881-AA; test: two-hybrid library CCmax; settings: mean of both orientations
T9 chain: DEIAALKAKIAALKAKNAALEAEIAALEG

4H906-AA = target: T10, 4H906-AA; test: two-hybrid library CCmax; settings: mean of both orientations
T10 chain: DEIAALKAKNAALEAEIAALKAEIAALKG

4H993-AA = target: T11, 4H993-AA; test: two-hybrid library CCmax; settings: mean of both orientations
T11 chain: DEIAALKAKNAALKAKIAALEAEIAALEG

N5-AA = target: T12, N5-AA; test: two-hybrid library CCmax; settings: mean of both orientations
T12 chain: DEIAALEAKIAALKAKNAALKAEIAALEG

N6-AA = target: T13, N6-AA; test: two-hybrid library CCmax; settings: mean of both orientations
T13 chain: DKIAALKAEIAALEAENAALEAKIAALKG

O13 = target: T14, O13; test: two-hybrid library CC0; settings: mean of both orientations
T14 chain: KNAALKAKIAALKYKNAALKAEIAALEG

O14 = target: T15, O14; test: two-hybrid library CC0; settings: mean of both orientations
T15 chain: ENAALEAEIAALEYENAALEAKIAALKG

O15 = target: T16, O15; test: two-hybrid library CC0; settings: mean of both orientations
T16 chain: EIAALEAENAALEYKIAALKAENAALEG

O16 = target: T17, O16; test: two-hybrid library CC0; settings: mean of both orientations
T17 chain: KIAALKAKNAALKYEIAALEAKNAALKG

O2 = target: T18, O2; test: two-hybrid library CC0; settings: mean of both orientations
T18 chain: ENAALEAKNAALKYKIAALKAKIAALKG

O3 = target: T19, O3; test: two-hybrid library CC0; settings: mean of both orientations
T19 chain: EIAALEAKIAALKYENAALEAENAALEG

O4 = target: T20, O4; test: two-hybrid library CC0; settings: mean of both orientations
T20 chain: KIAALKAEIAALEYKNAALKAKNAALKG

O5 = target: T21, O5; test: two-hybrid library CC0; settings: mean of both orientations
T21 chain: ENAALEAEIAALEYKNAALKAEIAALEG

O6 = target: T22, O6; test: two-hybrid library CC0; settings: mean of both orientations
T22 chain: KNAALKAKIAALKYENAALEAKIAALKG

O7 = target: T23, O7; test: two-hybrid library CC0; settings: mean of both orientations
T23 chain: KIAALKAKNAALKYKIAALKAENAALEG

O8 = target: T24, O8; test: two-hybrid library CC0; settings: mean of both orientations
T24 chain: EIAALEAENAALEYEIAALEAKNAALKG

O9 = target: T25, O9; test: two-hybrid library CC0; settings: mean of both orientations
T25 chain: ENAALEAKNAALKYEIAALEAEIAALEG

- interaction score (4H454-AA): 1.45
- interaction score (4H48-AA): -0.839
- interaction score (4H566-AA): 0.133
- interaction score (4H605-AA): -1.24
- interaction score (4H678-AA): 2.11
- interaction score (4H717-AA): 0.898
- interaction score (4H780-AA): -1.48
- interaction score (4H794-AA): -0.535
- interaction score (4H881-AA): 0.451
- interaction score (4H906-AA): 0.951
- interaction score (4H993-AA): 1.82
- interaction score (N5-AA): 0.301
- interaction score (N6-AA): 1.89
Binder: DEIAALEAKNAALKAEIAALEAKIAALKG [4H454-AA]

Binder: KNAALKAKIAALKYKNAALKAEIAALEG [O13]
- interaction score (O13): -2.86
- interaction score (O14): 1.21
- interaction score (O15): -0.499
- interaction score (O16): -2.87
- interaction score (O2): -2.82
- interaction score (O3): -2.81
- interaction score (O4): -2.72
- interaction score (O5): -2.45
- interaction score (O6): -1.12
- interaction score (O7): -2.81
- interaction score (O8): -1.5
- interaction score (O9): -2.75
